Data on one molecule can be found in publication PMC10778422, “PI3Kδ Inhibition Potentiates Glucocorticoids in B-lymphoblastic Leukemia by Decreasing Receptor Phosphorylation and Enhancing Gene Regulation”.

The data set has as its target GR-AF1-DBD unmodified (Homo sapiens, UniProt P04150 27-506). Briefly: EMSA; reference; Kd plotted in figure only; 5 mM Mg2+; EMSA: 20 mM Tris-HCl pH 8.0, 150 mM KCl, 10% glycerol, 5 mM MgCl2, 1 mM DTT, 1 mM EDTA, 200 ng/uL BSA, 40 ng/uL salmon sperm DNA; dsDNA diluted to 10 nM in this buffer; Hill fit; temperature not given. As to conditions: protein: recombinant; tags: His6 (pET28a); chain copies: 2; label: Cy5; blunt.

Chain of GR-AF1-DBD unmodified (P04150 27-506): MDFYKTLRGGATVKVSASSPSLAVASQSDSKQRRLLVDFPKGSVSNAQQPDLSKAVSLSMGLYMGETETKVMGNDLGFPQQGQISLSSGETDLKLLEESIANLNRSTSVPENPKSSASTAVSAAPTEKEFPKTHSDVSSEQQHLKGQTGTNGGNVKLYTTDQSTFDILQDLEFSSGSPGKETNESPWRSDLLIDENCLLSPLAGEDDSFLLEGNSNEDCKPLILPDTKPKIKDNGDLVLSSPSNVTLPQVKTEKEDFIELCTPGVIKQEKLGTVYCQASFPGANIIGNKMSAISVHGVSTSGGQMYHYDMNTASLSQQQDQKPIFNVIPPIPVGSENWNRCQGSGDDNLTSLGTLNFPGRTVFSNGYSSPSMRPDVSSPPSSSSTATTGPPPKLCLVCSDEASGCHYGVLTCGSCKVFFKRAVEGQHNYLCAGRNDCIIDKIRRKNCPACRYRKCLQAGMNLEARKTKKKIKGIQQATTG

B1: consensus GR site (dsDNA)
DNA 1: GTACGGAACATCGTGTACTGTAC
DNA 2: GTACAGTACACGATGTTCCGTAC
Consider B1, for which the binding result is reported as “binds”.
